Data from PMC10397247.

Experiments:
Test in all cases: two-hybrid library CCmax;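 note: natural log of median RNA to DNA barcode read ratio; higher means stronger binding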
[1] = biological target: T1, 4H3417-AA
T1 chain: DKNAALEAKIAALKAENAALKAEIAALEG

[2] = biological target: T2, 4H497-AA; conditions: mean of both orientations
T2 chain: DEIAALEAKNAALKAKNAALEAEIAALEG

[3] = biological target: T3, 4H656-AA; conditions: mean of both orientations
T3 chain: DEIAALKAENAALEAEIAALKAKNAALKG

[4] = biological target: T4, 4H3446-AA; conditions: mean of both orientations
T4 chain: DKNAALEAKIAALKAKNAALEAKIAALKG

[5] = biological target: T5, 4H675-AA; conditions: mean of both orientations
T5 chain: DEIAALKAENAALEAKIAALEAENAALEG

[6] = biological target: T6, 4H3709-AA; conditions: mean of both orientations
T6 chain: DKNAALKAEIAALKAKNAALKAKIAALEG

[7] = biological target: T7, 4H478-AA; conditions: mean of both orientations
T7 chain: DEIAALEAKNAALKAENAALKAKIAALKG

[8] = biological target: T8, 4H428-AA; conditions: mean of both orientations
T8 chain: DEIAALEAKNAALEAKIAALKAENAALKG

[9] = biological target: T9, 4H3939-AA; conditions: mean of both orientations
T9 chain: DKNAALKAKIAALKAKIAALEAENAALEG

[10] = biological target: T10, 4H971-AA; conditions: mean of both orientations
T10 chain: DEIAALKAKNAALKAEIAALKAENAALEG

[11] = biological target: T11, 4H3666-AA; conditions: mean of both orientations
T11 chain: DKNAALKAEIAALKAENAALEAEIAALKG

[12] = biological target: T12, 4H3591-AA; conditions: mean of both orientations
T12 chain: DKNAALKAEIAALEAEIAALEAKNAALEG

[13] = biological target: T13, 4H3920-AA; conditions: mean of both orientations
T13 chain: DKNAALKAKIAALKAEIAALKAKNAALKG

[14] = biological target: T14, 4H391-AA; conditions: mean of both orientations
T14 chain: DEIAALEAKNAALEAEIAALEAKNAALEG

[15] = biological target: T15, 4H3628-AA; conditions: mean of both orientations
T15 chain: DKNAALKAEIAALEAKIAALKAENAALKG

[16] = biological target: T16, 4H2837-AA; conditions: mean of both orientations
T16 chain: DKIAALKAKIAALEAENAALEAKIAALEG

[17] = biological target: T17, 4H3427-AA; conditions: mean of both orientations
T17 chain: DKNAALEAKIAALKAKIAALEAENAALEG

[18] = biological target: T18, 4H2949-AA; conditions: mean of both orientations
T18 chain: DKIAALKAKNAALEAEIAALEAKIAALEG

[19] = biological target: T19, 4H317-AA; conditions: mean of both orientations
T19 chain: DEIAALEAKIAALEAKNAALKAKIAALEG

[20] = biological target: T20, 4H3112-AA
T20 chain: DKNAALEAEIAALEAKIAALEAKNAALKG

[21] = biological target: T21, 4H2754-AA; conditions: mean of both orientations
T21 chain: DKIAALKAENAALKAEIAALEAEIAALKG

[22] = biological target: T22, 4H429-AA; conditions: mean of both orientations
T22 chain: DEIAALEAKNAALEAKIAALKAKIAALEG

[23] = biological target: T23, 4H454-AA; conditions: mean of both orientations
T23 chain: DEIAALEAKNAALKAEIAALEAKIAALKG

[24] = biological target: T24, 4H3606-AA; conditions: mean of both orientations
T24 chain: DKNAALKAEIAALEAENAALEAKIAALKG

[25] = biological target: T25, 4H780-AA; conditions: mean of both orientations
T25 chain: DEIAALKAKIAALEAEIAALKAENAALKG

[26] = biological target: T26, 4H794-AA; conditions: mean of both orientations
T26 chain: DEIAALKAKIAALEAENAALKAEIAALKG

[27] = biological target: T27, 4H906-AA; conditions: mean of both orientations
T27 chain: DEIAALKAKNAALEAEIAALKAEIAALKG

[28] = biological target: T28, 4H3343-AA; conditions: mean of both orientations
T28 chain: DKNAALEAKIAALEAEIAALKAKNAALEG

[29] = biological target: T29, 4H881-AA; conditions: mean of both orientations
T29 chain: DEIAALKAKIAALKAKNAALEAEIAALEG

[30] = biological target: T30, 4H3627-AA; conditions: mean of both orientations
T30 chain: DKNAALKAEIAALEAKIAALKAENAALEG

[31] = biological target: T31, 4H3655-AA; conditions: mean of both orientations
T31 chain: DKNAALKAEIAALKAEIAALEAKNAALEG

[32] = biological target: T32, 4H2944-AA; conditions: mean of both orientations
T32 chain: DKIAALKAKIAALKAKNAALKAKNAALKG

[33] = biological target: T33, 4H605-AA; conditions: mean of both orientations
T33 chain: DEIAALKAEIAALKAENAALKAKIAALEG

[34] = biological target: T34, 4H2642-AA; conditions: mean of both orientations
T34 chain: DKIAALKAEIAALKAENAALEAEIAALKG

[35] = biological target: T35, 4H678-AA; conditions: mean of both orientations
T35 chain: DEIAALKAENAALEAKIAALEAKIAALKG

[36] = biological target: T36, 4H3844-AA; conditions: mean of both orientations
T36 chain: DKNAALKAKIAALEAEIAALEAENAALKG

[37] = biological target: T37, 4H48-AA; conditions: mean of both orientations
T37 chain: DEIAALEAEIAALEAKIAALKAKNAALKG

[38] = biological target: T38, 4H717-AA; conditions: mean of both orientations
T38 chain: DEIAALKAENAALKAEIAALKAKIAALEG

[39] = biological target: T39, 4H335-AA; conditions: mean of both orientations
T39 chain: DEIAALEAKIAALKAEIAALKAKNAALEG

[40] = biological target: T40, 4H993-AA; conditions: mean of both orientations
T40 chain: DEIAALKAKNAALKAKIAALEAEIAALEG

[41] = biological target: T41, 4H3921-AA; conditions: mean of both orientations
T41 chain: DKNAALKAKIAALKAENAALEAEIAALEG

[42] = biological target: T42, 4H2617-AA
T42 chain: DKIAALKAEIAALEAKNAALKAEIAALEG

[43] = biological target: T43, 4H566-AA; conditions: mean of both orientations
T43 chain: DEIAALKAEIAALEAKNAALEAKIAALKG

[44] = biological target: T44, 4H2729-AA; conditions: mean of both orientations
T44 chain: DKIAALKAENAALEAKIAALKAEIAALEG

[45] = biological target: T45, 4H2883-AA; conditions: mean of both orientations
T45 chain: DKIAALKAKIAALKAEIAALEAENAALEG

[46] = biological target: T46, 4H342-AA; conditions: mean of both orientations
T46 chain: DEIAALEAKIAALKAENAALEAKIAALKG

DKNAALEAKIAALKAENAALKAEIAALEG [4H3417-AA]
interaction score [1]: 0.336
interaction score [2]: -1.9
interaction score [3]: 0.318
interaction score [4]: -0.679
interaction score [5]: -0.587
interaction score [6]: -0.223
interaction score [7]: 0.524
interaction score [8]: -0.935
interaction score [9]: -1.87
interaction score [10]: -1.03
interaction score [11]: 1.09
interaction score [12]: -1.37
interaction score [13]: -1.61
interaction score [14]: -1.68
interaction score [15]: -1.29

DKIAALKAEIAALEAKNAALKAEIAALEG [4H2617-AA]
interaction score [16]: 2.22
interaction score [17]: -0.774
interaction score [18]: 1.53
interaction score [19]: 1.65
interaction score [20]: -1.06
interaction score [21]: -1.08
interaction score [22]: 0.393
interaction score [23]: 2.09
interaction score [24]: 2.03
interaction score [25]: -1.9
interaction score [26]: 1.15
interaction score [27]: -0.74
interaction score [28]: -1.31
interaction score [29]: 1.37
interaction score [30]: 0.895
interaction score [31]: -1.76
interaction score [32]: -0.31
interaction score [33]: 0.918
interaction score [34]: 2.25
interaction score [35]: 0.485
interaction score [36]: -1.39
interaction score [37]: -0.511
interaction score [38]: -2.09
interaction score [39]: 0.00978
interaction score [40]: -0.54
interaction score [41]: 0.979
interaction score [42]: 1.29
interaction score [43]: 2.42
interaction score [44]: 2.54
interaction score [45]: -1.02
interaction score [46]: 2.32
